Measured values reported in article PMC11193222, “The serine-rich repeat glycoprotein Srr2 mediates Streptococcus agalactiae interaction with host fibronectin” (BMC Microbiology, 2024).

B1: recombinant Srr2 binding region (rSrr2-BR) (domain or fragment)
chain: EAATTARVQPRAMRVVSSASDMETLPAALISGEGDVTTVQGQDVTDKLQNLDIKLSGGVQAKAGVINMDKSESMHMSLKFTIDSVNRGDTFEIKLSDNIDTNGASNYSIVEPIKSPTGEVYATGIYDSQKKSIVYSFTDFAASKNNINGILDIPLWPDDTTVQNTKEDVLFSVKIKDQEATIKETVKYDPPVRIDFAGGVSVDSRITNIDDVGKKMTYISQINVDGKSLYNYNGLYTRIYNYSKESTADLKNSTIKIYKTTSDNIVESMVQDYSSMEDVTSKFANSYPEKGWYDIYWGQFIASNETYVIVVETPFTNAVTLNTTLSDYNENNGVEHNHTYSSESGYSDVNAQ

Assays:
[1] = target: recombinant Srr2 binding region (rSrr2-BR) (Streptococcus agalactiae (GBS) strain BM110) (UniProt Q3S2Y8); assay: ELISA; Srr2 proteins coated on microtiter wells (1 ug/well, 0.1 M sodium carbonate pH 9.5); soluble Fn (up to 240 nM) or Fbg (up to 7.5 nM) for 1 h; detected with mouse anti-Fn or anti-Fbg IgG; apparent Kd; in a further set increasing NaCl (0 to 1 M) strongly impaired the binding to rSrr2-BR
[2] = target: recombinant Srr2 binding region (rSrr2-BR) (Streptococcus agalactiae (GBS) strain BM110) (UniProt Q3S2Y8); assay: SPR; rSrr2 proteins amine-coupled to a CM5 chip (Biacore X-100); Fn injected; 25 °C, HEPES-EP+ pH 7.4, 0.15 M NaCl, 30 uL/min; steady-state fit, 1:1 model
human fibrinogen (Fbg) = human fibrinogen (Fbg) (human, UniProt P02671 36-866); P02675 45-491; P02679 27-453, Plasma-derived, disulfide-linked hexamer, glycosylated. Chains are the circulating forms by convention: A-alpha 610 aa, B-beta 461 aa, gamma-A 411 aa (the canonical P02679 sequence is gamma-B, so gamm); assay: ELISA; Srr2 proteins coated on microtiter wells (1 ug/well, 0.1 M sodium carbonate pH 9.5); soluble Fn (up to 240 nM) or Fbg (up to 7.5 nM) for 1 h; detected with mouse anti-Fn or anti-Fbg IgG; apparent Kd; in a further set increasing NaCl (0 to 1 M) strongly impaired the binding to rSrr2-BR; details: both partners purified
[3] = target: human plasma fibronectin (Fn) (human); assay: ELISA; apparent; soluble Srr2-BR on immobilized Fn
Sequence of human plasma fibronectin (Fn) (human) (P02751 other isoform, or with tags, fused parts or gaps, chain 1 of 2): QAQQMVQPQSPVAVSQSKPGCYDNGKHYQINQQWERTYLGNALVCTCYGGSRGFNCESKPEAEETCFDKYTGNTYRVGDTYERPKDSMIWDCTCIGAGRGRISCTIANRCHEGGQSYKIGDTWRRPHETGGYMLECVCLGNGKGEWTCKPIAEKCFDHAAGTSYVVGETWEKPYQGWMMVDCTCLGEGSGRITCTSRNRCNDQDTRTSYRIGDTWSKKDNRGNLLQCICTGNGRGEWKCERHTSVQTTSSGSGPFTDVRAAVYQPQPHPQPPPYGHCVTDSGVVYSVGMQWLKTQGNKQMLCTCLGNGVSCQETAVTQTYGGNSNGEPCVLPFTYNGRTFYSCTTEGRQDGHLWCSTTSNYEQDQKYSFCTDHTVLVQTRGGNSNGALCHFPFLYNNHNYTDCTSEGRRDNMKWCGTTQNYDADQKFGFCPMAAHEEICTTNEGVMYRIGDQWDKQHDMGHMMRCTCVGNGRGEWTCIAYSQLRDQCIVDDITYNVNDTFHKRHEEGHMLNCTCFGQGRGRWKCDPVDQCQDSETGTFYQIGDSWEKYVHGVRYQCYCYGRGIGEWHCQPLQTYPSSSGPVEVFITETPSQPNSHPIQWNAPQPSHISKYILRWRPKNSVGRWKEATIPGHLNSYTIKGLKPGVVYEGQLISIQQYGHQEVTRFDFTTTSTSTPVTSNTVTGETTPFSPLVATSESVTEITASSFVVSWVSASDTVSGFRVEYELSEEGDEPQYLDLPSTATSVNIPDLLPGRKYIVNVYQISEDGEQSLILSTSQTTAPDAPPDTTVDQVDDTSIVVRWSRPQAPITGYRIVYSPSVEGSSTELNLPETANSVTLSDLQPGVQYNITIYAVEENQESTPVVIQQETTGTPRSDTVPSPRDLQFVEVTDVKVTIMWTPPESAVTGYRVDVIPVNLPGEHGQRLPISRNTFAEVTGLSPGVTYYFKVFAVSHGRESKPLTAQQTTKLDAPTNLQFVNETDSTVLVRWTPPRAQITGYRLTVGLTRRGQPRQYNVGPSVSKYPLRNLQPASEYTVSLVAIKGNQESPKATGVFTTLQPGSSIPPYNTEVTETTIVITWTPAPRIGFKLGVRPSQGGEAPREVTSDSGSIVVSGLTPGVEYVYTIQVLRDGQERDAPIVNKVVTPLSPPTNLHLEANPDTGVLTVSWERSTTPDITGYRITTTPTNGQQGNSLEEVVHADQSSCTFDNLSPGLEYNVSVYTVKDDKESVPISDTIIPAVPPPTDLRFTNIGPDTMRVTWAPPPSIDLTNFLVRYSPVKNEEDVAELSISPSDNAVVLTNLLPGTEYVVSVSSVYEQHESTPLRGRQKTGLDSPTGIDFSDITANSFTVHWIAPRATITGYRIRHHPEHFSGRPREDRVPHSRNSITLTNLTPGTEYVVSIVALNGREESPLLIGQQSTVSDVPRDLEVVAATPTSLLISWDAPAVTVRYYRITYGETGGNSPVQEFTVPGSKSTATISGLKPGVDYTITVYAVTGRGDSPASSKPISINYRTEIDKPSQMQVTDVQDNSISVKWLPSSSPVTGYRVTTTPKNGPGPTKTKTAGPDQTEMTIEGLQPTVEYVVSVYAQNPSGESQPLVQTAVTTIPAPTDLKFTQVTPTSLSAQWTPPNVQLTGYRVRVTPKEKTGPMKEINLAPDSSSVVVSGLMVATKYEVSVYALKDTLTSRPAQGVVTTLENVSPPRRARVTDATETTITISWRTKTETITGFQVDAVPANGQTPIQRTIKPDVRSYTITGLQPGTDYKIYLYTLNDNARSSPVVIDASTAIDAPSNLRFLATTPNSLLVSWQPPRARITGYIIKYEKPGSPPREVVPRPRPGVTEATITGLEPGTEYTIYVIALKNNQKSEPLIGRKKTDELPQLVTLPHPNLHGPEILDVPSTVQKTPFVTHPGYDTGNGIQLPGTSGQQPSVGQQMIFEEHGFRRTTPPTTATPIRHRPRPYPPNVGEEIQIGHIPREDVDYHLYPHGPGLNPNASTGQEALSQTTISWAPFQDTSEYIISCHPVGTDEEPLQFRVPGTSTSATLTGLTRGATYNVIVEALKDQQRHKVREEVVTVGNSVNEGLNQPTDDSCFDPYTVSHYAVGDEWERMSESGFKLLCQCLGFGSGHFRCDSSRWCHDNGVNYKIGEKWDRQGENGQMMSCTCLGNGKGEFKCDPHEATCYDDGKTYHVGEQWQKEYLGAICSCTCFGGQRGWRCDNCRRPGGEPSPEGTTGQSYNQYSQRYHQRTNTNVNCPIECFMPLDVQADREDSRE
Sequence of human plasma fibronectin (Fn) (human) (P02751 other isoform, or with tags, fused parts or gaps, chain 2 of 2): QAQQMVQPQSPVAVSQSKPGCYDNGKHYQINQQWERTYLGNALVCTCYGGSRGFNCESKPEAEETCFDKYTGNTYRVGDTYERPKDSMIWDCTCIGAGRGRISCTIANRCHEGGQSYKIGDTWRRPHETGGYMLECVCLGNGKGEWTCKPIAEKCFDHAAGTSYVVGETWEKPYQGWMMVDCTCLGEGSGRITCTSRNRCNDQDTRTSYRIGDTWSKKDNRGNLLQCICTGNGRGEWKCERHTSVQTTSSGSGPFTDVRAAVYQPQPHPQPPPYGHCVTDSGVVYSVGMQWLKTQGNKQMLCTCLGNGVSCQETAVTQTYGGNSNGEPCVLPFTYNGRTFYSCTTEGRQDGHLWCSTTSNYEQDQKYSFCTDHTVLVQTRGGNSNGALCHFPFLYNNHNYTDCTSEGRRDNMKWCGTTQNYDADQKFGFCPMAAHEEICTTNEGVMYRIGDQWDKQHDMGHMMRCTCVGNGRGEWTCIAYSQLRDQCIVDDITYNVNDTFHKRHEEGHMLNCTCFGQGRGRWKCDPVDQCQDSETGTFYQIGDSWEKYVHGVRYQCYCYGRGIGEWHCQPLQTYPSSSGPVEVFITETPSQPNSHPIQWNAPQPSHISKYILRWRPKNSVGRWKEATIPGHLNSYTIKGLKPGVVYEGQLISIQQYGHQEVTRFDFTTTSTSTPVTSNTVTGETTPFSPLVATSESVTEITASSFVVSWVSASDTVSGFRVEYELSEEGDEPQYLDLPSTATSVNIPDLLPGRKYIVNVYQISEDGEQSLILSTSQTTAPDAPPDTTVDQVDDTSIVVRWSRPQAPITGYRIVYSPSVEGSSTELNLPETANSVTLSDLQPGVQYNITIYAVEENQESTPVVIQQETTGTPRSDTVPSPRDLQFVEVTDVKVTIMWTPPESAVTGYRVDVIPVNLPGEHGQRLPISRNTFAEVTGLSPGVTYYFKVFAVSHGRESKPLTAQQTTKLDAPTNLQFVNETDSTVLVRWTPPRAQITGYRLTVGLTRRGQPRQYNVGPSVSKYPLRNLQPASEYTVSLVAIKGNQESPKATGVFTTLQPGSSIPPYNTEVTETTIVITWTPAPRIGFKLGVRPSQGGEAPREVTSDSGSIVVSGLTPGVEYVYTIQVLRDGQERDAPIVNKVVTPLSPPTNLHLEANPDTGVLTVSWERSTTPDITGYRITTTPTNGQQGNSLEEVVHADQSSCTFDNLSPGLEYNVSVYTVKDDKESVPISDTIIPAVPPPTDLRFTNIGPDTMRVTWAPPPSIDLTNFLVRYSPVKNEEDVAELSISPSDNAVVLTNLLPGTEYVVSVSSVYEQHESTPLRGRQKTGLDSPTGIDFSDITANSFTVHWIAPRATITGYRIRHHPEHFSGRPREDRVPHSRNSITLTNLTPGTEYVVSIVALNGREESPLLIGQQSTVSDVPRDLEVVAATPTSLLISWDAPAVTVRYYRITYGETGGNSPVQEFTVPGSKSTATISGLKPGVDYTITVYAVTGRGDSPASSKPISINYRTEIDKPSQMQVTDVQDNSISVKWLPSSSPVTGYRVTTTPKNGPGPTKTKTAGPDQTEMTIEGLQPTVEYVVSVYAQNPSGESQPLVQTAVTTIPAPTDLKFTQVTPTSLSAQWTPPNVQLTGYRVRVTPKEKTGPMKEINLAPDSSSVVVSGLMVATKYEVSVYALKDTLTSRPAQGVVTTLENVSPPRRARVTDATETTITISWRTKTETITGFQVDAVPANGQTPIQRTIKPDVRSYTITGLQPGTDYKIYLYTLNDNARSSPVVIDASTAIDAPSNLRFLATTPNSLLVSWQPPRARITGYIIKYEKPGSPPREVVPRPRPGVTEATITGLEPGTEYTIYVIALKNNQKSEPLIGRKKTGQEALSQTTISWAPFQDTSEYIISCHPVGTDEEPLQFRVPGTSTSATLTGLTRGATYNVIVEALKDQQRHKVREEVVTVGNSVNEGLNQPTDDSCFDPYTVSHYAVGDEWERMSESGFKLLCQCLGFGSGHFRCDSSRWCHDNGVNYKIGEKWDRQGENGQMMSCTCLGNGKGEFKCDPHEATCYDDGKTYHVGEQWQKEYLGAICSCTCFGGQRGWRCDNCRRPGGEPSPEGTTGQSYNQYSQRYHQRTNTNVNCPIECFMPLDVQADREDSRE

| Molecule | Kd [1] [nM] | Kd [2] [nM] | Kd (human fibrinogen (Fbg)) [nM] | Kd [3] [nM] |
| --- | --- | --- | --- | --- |
| human plasma fibronectin (Fn) (natural protein) | 30 | 92 | – | – |
| B1 | – | – | 0.45 ± 0.02 | 629 |
